These are literature values, as cited in article PMC4184467.

This data set has as its system Lys64. The following applies: wild-type enzyme, zinc-bound.

For “Carbonic anhydrase III (CA III) (Homo sapiens)”, the pKa – broadly, the pH at which an ionisable group is half protonated – is 9.0.
